From PMC10362037
pKd: −log10 of the molar value.

Target: SARS-CoV-2 Omicron (B.1.1.529) Spike S1 (Sino Biological, 40591-V08H41) (SARS-CoV-2)
Assay: SPR

Human integrin αvβ3 (R&D Systems, 3817-AV-050) (from UniProt P06756 31-1048; P05106 27-718) (complex)
pKd: 7.16
